Measured values as given in paper PMC7485968 (2020).

T1: His-tagged ERG (Homo sapiens (Human), UniProt P11308)
T1 chain: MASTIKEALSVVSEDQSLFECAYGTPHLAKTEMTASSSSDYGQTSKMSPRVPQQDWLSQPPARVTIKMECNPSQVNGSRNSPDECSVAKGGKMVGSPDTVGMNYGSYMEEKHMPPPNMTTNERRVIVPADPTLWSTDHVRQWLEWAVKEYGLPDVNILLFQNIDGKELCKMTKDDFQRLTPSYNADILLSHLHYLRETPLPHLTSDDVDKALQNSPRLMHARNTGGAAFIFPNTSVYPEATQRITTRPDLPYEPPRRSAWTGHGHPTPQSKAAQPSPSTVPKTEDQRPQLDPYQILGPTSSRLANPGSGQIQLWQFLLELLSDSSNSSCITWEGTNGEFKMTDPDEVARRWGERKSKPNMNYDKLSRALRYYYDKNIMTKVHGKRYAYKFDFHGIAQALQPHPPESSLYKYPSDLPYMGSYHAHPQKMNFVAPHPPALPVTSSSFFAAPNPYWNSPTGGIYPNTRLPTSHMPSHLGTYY


Tests used:
His-tagged ERG [1] = biological target: T1, His-tagged ERG; assay: His-tag pull-down
His-tagged ERG [2] = biological target: T1, His-tagged ERG; assay: His-tag pull-down; AlphaScreen

binding result (His-tagged ERG [1])	binding result (His-tagged ERG [2])	Binder
no binding	–	FLAG-GST-EWS 459-656aa (protein) PPREGRGMPPPLRGGPGGPGGPGGPMGRMGGRGGDRGGFPPRGPRGSRGNPSGGGNVQHRAGDWQCPNPGCGNQNFAWRTECNQCKAPKPEGFLPPPFPPPGGDRGRGGPGGMRGGRGGLMDRGGPGGMFRGGRGGDRGGFRGGRGMDRGGFGGGRRGGPGGPPGPLMEQMGGRRGGRGGPGKMDKGEHRQERRDRPY
–	binds	FLAG-GST-EWS 1-355aa (protein) MASTDYSTYSQAAAQQGYSAYTAQPTQGYAQTTQAYGQQSYGTYGQPTDVSYTQAQTTATYGQTAYATSYGQPPTGYTTPTAPQAYSQPVQGYGTGAYDTTTATVTTTQASYAAQSAYGTQPAYPAYGQQPAATAPTRPQDGNKPTETSQPQSSTGGYNQPSLGYGQSNYSYPQVPGSYPMQPVTAPPSYPPTSYSSTQPTSYDQSSYSQQNTYGQPSSYGQQSSYGQQSSYGQQPPTSYPPQTGSYSQAPSQYSQQSSSYGQQSSFRQDHPSSMGVYGQESGGFSGPGENRSMSGPDNRGRGRGGFDRGGMSRGGRGGGRGGMGSAGERGGFNKPGGPMDEGPDLDLGPPVDPD
